Source: patent publication US6946265 (Xencor, dated 2005)

T1: full-length human growth hormone receptor (hGHR) (human, UniProt P10912 19-638)
T1 sequence (looked up): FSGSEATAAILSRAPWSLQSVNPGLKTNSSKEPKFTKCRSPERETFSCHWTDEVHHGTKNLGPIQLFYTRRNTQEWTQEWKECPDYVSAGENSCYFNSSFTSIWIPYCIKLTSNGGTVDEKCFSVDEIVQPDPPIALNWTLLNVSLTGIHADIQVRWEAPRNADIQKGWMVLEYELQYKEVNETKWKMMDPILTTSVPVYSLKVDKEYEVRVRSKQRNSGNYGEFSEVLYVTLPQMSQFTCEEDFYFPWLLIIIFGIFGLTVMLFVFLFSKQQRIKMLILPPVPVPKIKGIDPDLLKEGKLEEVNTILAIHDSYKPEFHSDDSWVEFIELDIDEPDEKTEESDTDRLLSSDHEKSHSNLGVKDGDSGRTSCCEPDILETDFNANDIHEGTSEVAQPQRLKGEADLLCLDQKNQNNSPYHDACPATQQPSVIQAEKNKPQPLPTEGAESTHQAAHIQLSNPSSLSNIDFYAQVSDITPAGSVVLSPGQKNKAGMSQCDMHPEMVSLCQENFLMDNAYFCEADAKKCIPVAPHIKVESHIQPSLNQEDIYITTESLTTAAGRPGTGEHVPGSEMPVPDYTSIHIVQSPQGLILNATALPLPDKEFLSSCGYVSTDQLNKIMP


These binders were tested against T1, full-length human growth hormone … (assay: cell-based or functional assay).

ED50, cell proliferation (MTT assay) of FDC-P1 cells transfected with hGHR	Binder
320	GHA protein mutant b (A13V, T27V, S79A, V90I, G161M, S184A) (ligand) FPTIPLSRLFDNVMLRAHRLHQLAFDVYQEFEEAYIPKEQKYSFLQNPQTSLCFSESIPTPSNREETQQKSNLELLRIALLLIQSWLEPIQFLRSVFANSLVYGASDSNVYDLLKDLEEGIQTLMGRLEDGSPRTGQIFKQTYSKFDTNSHNDDALLKNYMLLYCFRKDMDKVETFLRIVQCRAVEGSCGF
230	GHA protein mutant f (A13V, T27V, Y28F, F54Y, S55A, S79A, S85A, V90I, G161M, S184A) (ligand) FPTIPLSRLFDNVMLRAHRLHQLAFDVFQEFEEAYIPKEQKYSFLQNPQTSLCYAESIPTPSNREETQQKSNLELLRIALLLIQAWLEPIQFLRSVFANSLVYGASDSNVYDLLKDLEEGIQTLMGRLEDGSPRTGQIFKQTYSKFDTNSHNDDALLKNYMLLYCFRKDMDKVETFLRIVQCRAVEGSCGF
260	GHA protein mutant d (A13V, T27V, S55A, S79A, S85A, V90I, G161M, S184A) (ligand) FPTIPLSRLFDNVMLRAHRLHQLAFDVYQEFEEAYIPKEQKYSFLQNPQTSLCFAESIPTPSNREETQQKSNLELLRIALLLIQAWLEPIQFLRSVFANSLVYGASDSNVYDLLKDLEEGIQTLMGRLEDGSPRTGQIFKQTYSKFDTNSHNDDALLKNYMLLYCFRKDMDKVETFLRIVQCRAVEGSCGF
